Article PMC7440919, “Cryo-EM structure of the lysosomal chloride-proton exchanger CLC-7 in complex with OSTM1” (eLife, 2020)

B1: human CLC-7 (natural protein, UniProt P51798 1-805, looked up)
chain: MANVSKKVSWSGRDRDDEEAAPLLRRTARPGGGTPLLNGAGPGAARQSPRSALFRVGHMSSVELDDELLDPDMDPPHPFPKEIPHNEKLLSLKYESLDYDNSENQLFLEEERRINHTAFRTVEIKRWVICALIGILTGLVACFIDIVVENLAGLKYRVIKGNIDKFTEKGGLSFSLLLWATLNAAFVLVGSVIVAFIEPVAAGSGIPQIKCFLNGVKIPHVVRLKTLVIKVSGVILSVVGGLAVGKEGPMIHSGSVIAAGISQGRSTSLKRDFKIFEYFRRDTEKRDFVSAGAAAGVSAAFGAPVGGVLFSLEEGASFWNQFLTWRIFFASMISTFTLNFVLSIYHGNMWDLSSPGLINFGRFDSEKMAYTIHEIPVFIAMGVVGGVLGAVFNALNYWLTMFRIRYIHRPCLQVIEAVLVAAVTATVAFVLIYSSRDCQPLQGGSMSYPLQLFCADGEYNSMAAAFFNTPEKSVVSLFHDPPGSYNPLTLGLFTLVYFFLACWTYGLTVSAGVFIPSLLIGAAWGRLFGISLSYLTGAAIWADPGKYALMGAAAQLGGIVRMTLSLTVIMMEATSNVTYGFPIMLVLMTAKIVGDVFIEGLYDMHIQLQSVPFLHWEAPVTSHSLTAREVMSTPVTCLRRREKVGVIVDVLSDTASNHNGFPVVEHADDTQPARLQGLILRSQLIVLLKHKVFVERSNLGLVQRRLRLKDFRDAYPRFPPIQSIHVSQDERECTMDLSEFMNPSPYTVPQEASLPRVFKLFRALGLRHLVVVDNRNQVVGLVTRKDLARYRLGKRGLEELSLAQT
notes: CLC-7 (CLCN7) chloride-proton exchanger, human; synthesized gene (SynBio); called full-length in the results for the human CLC-7 expressed alone; the methods describe only the mCerulean construct used for the complex with OSTM1; also called hsCLC-7; hsCLCN7; not shown: mCerulean, C-terminal, cleaved
B2: human osteopetrosis-associated transmembrane protein 1 (OSTM1) (natural protein)
chain: ALPFGSSPHRVFHDLLSEQQLLEVEDLSLSLLQGGGLGPLSLPPDLPDLDPECRELLLDFANSSAELTGCLVRSARPVRLCQTCYPLFQQVVSKMDNISRAAGNTSESQSCARSLLMADRMQIVVILSEFFNTTWQEANCANCLTNNSEELSNSTVYFLNLFNHTLTCFEHNLQGNAHSLLQTKNYSEVCKNCREAYKTLSSLYSEMQKMNELENKAEPGTHLCIDVEDAMNITRKLWSRTFNCSVPCSDTVPVIAVSVFILFLPVVFYLSSFLHSEQKKRKLILPKRLKSSTSFANIQENSN
modifications: N-linked carbohydrate at asparagines 93, 128, 163, 184, 194, 263 and 274; five disulfide bonds in the luminal domain
notes: OSTM1, human, single-pass transmembrane protein; synthesized gene (SynBio); C-terminal cytoplasmic domain disordered in the structure; Printed residue numbers appear to count on the precursor; also called hsOSTM1; beta-subunit of CLC-7; not shown: mVenus, C-terminal, cleaved

Tests used:
[1] = biological target: chicken CLC-7 (Gallus gallus (chicken)); assay: cryo-EM structure; purified ggCLC-7 at 2 mg/ml in LMNG, 50 mM Tris-HCl pH 8, 150 mM KCl, 2 mM DTT; C2 symmetry imposed
[2] = biological target: the molecule itself; assay: cryo-EM structure; purified co-expressed hsCLC-7/OSTM1 complex at 2 mg/ml, supplemented with 1 mM ATP and 0.1% LMNG; 50 mM Tris-HCl pH 8, 150 mM KCl, 2 mM DTT; C2 symmetry imposed, local refinements
[3] = biological target: B1; assay: as above; conditions: both partners purified

Row | stoichiometry N [1] | binding result [3] | Molecule | stoichiometry N [2]
1 | 2 | – | chicken CLC-7 (natural protein) | –
2 | – | – | B1 | 2
3 | – | binds | B2 | 2
